Assay results published in the supplement of paper PMC7125110.
± gives the standard error. Variants at the floor of the assay were thinned out.

B1: glmS ribozyme (parent)
chain: AUAAAAGCGCCAGAACUACAGAAAUGUAGUUGACGAGGAGGAGGUUUAUCGAAUUUUCGGCGGAUGCCUCCAAA

Columns and labels:
Conditions in all cases: with glucosamine-6-phosphate
glucosamine-6-phosphate [1] = variants of: B1; experiment: self-cleavage kobs at 160 uM GlcN6P; higher = faster cleavage; RNA array
Outline: (§1)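 Glucosamine-6-phosphate (40 μM to 10 mM) in HEPES/KCl/Mg(OAc)2 buffer was flowed over sequenced MiSeq chips, and tiles were imaged over ~14 h. Barcoded ribozyme variants there had been transcribed in situ by E. coli RNA polymerase and were tracked through a hybridised Cy3 probe at 37 °C. One- or two-exponential decay fits to per-tile medians, normalised to baseline and to non-cleaving reference variants, gave kobs. kcat and KM came from weighted Michaelis–Menten fits across concentrations.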

glucosamine-6-phosphate [2] = variants of: B1; experiment: self-cleavage kobs at 2500 uM GlcN6P; higher = faster cleavage; RNA array
Outline: as §1

glucosamine-6-phosphate [3] = variants of: B1; experiment: self-cleavage kobs at 640 uM GlcN6P; higher = faster cleavage; RNA array
Outline: as §1

glucosamine-6-phosphate [4] = variants of: B1; experiment: self-cleavage kobs at 10000 uM GlcN6P; higher = faster cleavage; RNA array
Outline: as §1

Variant | self-cleavage kobs at 160 uM GlcN6P (glucosamine-6-phosphate [1]) | self-cleavage kobs at 2500 uM GlcN6P (glucosamine-6-phosphate [2]) | self-cleavage kobs at 640 uM GlcN6P (glucosamine-6-phosphate [3]) | self-cleavage kobs at 10000 uM GlcN6P (glucosamine-6-phosphate [4])
C8U G35C C50U G51U C61G | < 1e-05 s⁻¹ | < 1e-05 s⁻¹ | – | –
G9U G37C | < 1e-05 s⁻¹ | < 1e-05 s⁻¹ | < 1e-05 s⁻¹ | < 1e-05 s⁻¹
A12G A15U A53C C67A | < 1e-05 s⁻¹ | – | – | –
A14U U31A U47A | 0.000611 ± 0.00016 s⁻¹ | – | 0.00172 ± 0.00055 s⁻¹ | –
G7U G9A C16U G29A A53U G59A G66A U69G | < 1e-05 s⁻¹ | – | < 1e-05 s⁻¹ | –
C10U A33U G62U C71A | < 1e-05 s⁻¹ | < 1e-05 s⁻¹ | < 1e-05 s⁻¹ | < 1e-05 s⁻¹
A6C C8G G35C C58U C67G | < 1e-05 s⁻¹ | < 1e-05 s⁻¹ | – | –
G9U A48U C67G | < 1e-05 s⁻¹ | < 1e-05 s⁻¹ | < 1e-05 s⁻¹ | –
G40C A42G A53C | 5.62e-05 ± 1.9e-05 s⁻¹ | 0.000564 ± 0.00013 s⁻¹ | 0.00018 ± 6.6e-05 s⁻¹ | –
U31C G43U A48U U55A | < 1e-05 s⁻¹ | < 1e-05 s⁻¹ | < 1e-05 s⁻¹ | –
G51U A64U | < 1e-05 s⁻¹ | < 1e-05 s⁻¹ | < 1e-05 s⁻¹ | < 1e-05 s⁻¹
C10U G51C | < 1e-05 s⁻¹ | – | – | –
G7C U31G | < 1e-05 s⁻¹ | < 1e-05 s⁻¹ | – | < 1e-05 s⁻¹
C16G G62C A64U | < 1e-05 s⁻¹ | – | – | –
A12U G41U U45A | 0.00011 ± 2.8e-05 s⁻¹ | 0.000989 ± 0.00025 s⁻¹ | 0.000308 ± 5.9e-05 s⁻¹ | –
U47A G63U | < 1e-05 s⁻¹ | < 1e-05 s⁻¹ | < 1e-05 s⁻¹ | < 1e-05 s⁻¹
U54A G66A | 0.00093 ± 0.00023 s⁻¹ | 0.00986 ± 0.0017 s⁻¹ | 0.00513 ± 0.00085 s⁻¹ | –
C10A C11G A12C G13U | < 1e-05 s⁻¹ | < 1e-05 s⁻¹ | – | –
A52C U65C | < 1e-05 s⁻¹ | – | < 1e-05 s⁻¹ | –
A6U C11A A12U C34G C50U U55G | < 1e-05 s⁻¹ | < 1e-05 s⁻¹ | < 1e-05 s⁻¹ | –
A6G U30G G59U | < 1e-05 s⁻¹ | < 1e-05 s⁻¹ | < 1e-05 s⁻¹ | –
C10G G40C | < 1e-05 s⁻¹ | – | < 1e-05 s⁻¹ | < 1e-05 s⁻¹
G43C C71G | < 1e-05 s⁻¹ | < 1e-05 s⁻¹ | < 1e-05 s⁻¹ | –
